Test results from the supplement of paper PMC9170038.

How the values were obtained:
MS2 coat protein [1] = experiment: apparent KD of MS2 coat protein; higher = weaker reporter binding; conditions: Eterna round: R101
Method: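 RNA-MaP: designed FMN/MS2 RNA switches (84 nt design region) are transcribed on-chip within common flanks and titrated with SNAP-549-labelled MS2 coat protein (about 1-3000 nM) in 100 mM Tris pH 7.5, 80 mM KCl, 4 mM MgCl2, without or with 200 uM FMN. Median apparent KD per design; activation ratio = KD,OFF / KD,ON.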

MS2 coat protein [2] = experiment: apparent KD of MS2 coat protein, switch ON state; designed switch direction (-1 OFF switch, 1 ON switch): 1; higher = weaker reporter binding; conditions: FMN input: 0 or 200 uM; Eterna round: R93 (includes R88 designs)
Summary of the method: (§1)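 Designed RNA switches were transcribed on-chip from Illumina sequencing clusters. They were then titrated with SNAP-549-labelled MS2 coat protein (twofold steps, 0.7 or 1.5 nM to 3 µM; 0.8–1.5 h to 10–20 min per step) in 100 mM Tris-HCl pH 7.5, 80 mM KCl, 4 mM MgCl2, without or with constant ligand. Apparent KD is the per-design median of normalised cluster binding-curve fits.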

MS2 coat protein [3] = experiment: apparent KD of MS2 coat protein, switch OFF state (with FMN for OFF switches, without FMN for ON switches); designed switch direction (-1 OFF switch, 1 ON switch): 1; higher = weaker reporter binding; conditions: FMN input: 0 or 200 uM; Eterna round: R93 (includes R88 designs)
Summary of the method: as §1

Sequence	apparent KD of MS2 coat protein (MS2 coat protein [1]; input ligand: FMN 200 uM) [nM]	apparent KD of MS2 coat protein (MS2 coat protein [1]; input ligand: none) [nM]	apparent KD of MS2 coat protein (MS2 coat protein [2]) [nM]	apparent KD of MS2 coat protein (MS2 coat protein [3]) [nM]
CUGGUUGUCGUAGGAUAUGUAGGAUAUUCCUACAUGAGGAUCACCCAUGUUCGCAUGGAAGAAGGACAGAAGGACGAUGACCAG [salish99_SSNG2_013 #endbits investigation] (puzzle (switch architecture): Same State NG 2)	9.22	1320	–	–
GCCAUCGCAUGAGGAUAUGCUCGGGUUUCCCGAGCAGAAGGCAUGUCAUAAGACAUGAGGAUCACCCAUGUAGUUAAGAUGGCA [#HiddenHairpinInALoop - Mat - Same State NG 1 - JL mod - D3] (puzzle (switch architecture): Same State NG 1)	12.7	289	–	–
UUUAGUUUGUAGAAGGGUGACAUGAGGAUCACCCAUGUGCGUCGCCUGAAAGACCAGGGUACGCCACAGGAUAUACAAAGUAAA [Tiveedbila] (puzzle (switch architecture): Inverted Same State NG 2)	76.8	39.6	–	–
AAAUAAUCCUCAGGAUAUGACUCCGAAACGGAGUCAGAAGGGAGGAUCACCCUCUUCAGCUCAGCGUCGAAAGACGCUGAGCAA [#SharedSequence ExNG1 - 23] (puzzle (switch architecture): Exclusion NG 1)	11.9	863	–	–
GGGUACAUCGGAGGAUAUCAUGUAAAUACAUGAGGAUCACCCAUGUCGAUGGAGACAUCGGAGAUUGAGAAGGCCGAUGUACCG (puzzle (switch architecture): Same State NG 2)	8.42	159	–	–
AUCAGCUCGUGAGGAUAUACGUCACUGCGUCAGCAGUGUGGUAAGAUCACAUGAGGAUCACCCAUGUAGAAGGCACGAGCUGAU [#FlippingAptamerGcClosingBasepair - Ex NG2 #82] (puzzle (switch architecture): Exclusion NG 2)	539	23.6	–	–
AGCUAUGACAUGAGGAUCACCCAUGUAUACAUGGGAUUGACGUAGGAUAUGCUGAAGAUUAAAGUGCAGAAGGACGGCUUAGCG [JR #DistanceFar #Hairpin #NP SSNG3 Sub065] (puzzle (switch architecture): Same State NG 3)	512	1250	–	–
ACACAUGAGGAUCACCCAUGUAGCCGGCGUCUGCGCCAGCCACAGGAUAUACGGCAACACAAGCCGUAGAAGGGUGAUAAACAC [Lalearledi] (puzzle (switch architecture): Same State NG 3)	33.9	49.1	–	–
GGCAGCACUUAGAAGGGAGUGCGAUAAUCGCACUCAGGAUAUGAGGAUCACCCAUAUCAAGCUGCCACUGAGGCAAAGCCUCAG [#SharedSequence - IEx NG 4-1] (puzzle (switch architecture): Inverted Exclusion NG 1)	9.42	10.6	–	–
AAUUAAAUCCUAGGAUAUGACUCCGAAACGGAGUCAGAAGGAGGAUCACCCUUUCAAAGCUCAGCGUCGAAAGACGCUGAGCAA [#SharedSequence - ExNG1-17] (puzzle (switch architecture): Exclusion NG 1)	82.9	649	–	–
CCGACGUUUCAGAAGGCACUCGCAUAAUGCGAGUGAGGAUAUGAGGAUCACCCAUAUCAUCGUCGGAGUCACCGAAACGGUGAC [#SharedSequence - IEx NG 3-2] (puzzle (switch architecture): Inverted Exclusion NG 1)	12.4	7.89	–	–
AAAUGAUAUCAGAAGGCGUGGACGAAACGUCCACGAGGAUAUGAGGAUCACCCAUAUCAGGUCAGCCUGCAAAGCAGGCUGACC [#SharedSequence - IExNG1: 7-2] (puzzle (switch architecture): Inverted Exclusion NG 1)	126	15.6	–	–
GUUGGAUUUCAGAAGGGCUCCAGCAAAGCUGGAGCAGGAUAUGAGGAUCACCCAUAUCAAUCUCCAGAAUUGAUAUGAAUCAAU [#SharedSequence - IExNG1: 9-1] (puzzle (switch architecture): Inverted Exclusion NG 1)	317	29.2	–	–
AAUAAAAUUCUAGGAUAUGACUCCGAAACGGAGUCAGAAGGAGGAUCACCCUUUCAAAGCUCAGCGUCGAAAGACGCUGAGCAA [#SharedSequence - ExNG1-19] (puzzle (switch architecture): Exclusion NG 1)	1160	155	–	–
AAUAAACAUGAGGAUCACCCAUGUAGAAAUAUGGGAGGAUAUACAAAGACGAAAGUCAAAGUAGAAGGCCUAAUAU [Mat - Same State 1 - Mod - D154]	–	–	23.2	64.7
GGGCAAGAGAGAGAGGAUAUCCAAAGGAAAACAUGAGGAUCACCCAUGUAGAAGGUAGGAAAUUGGGAGAAGGCUCAAGAGAGAG [salish99-ss2-137]	–	–	8.51	12.6
UUAAAACAUGAGGAUCACCCAUGUAGAAAUAUGGGAGGAUAUACGAAGACGAAAGUCAAAGUAGAAGGCCUAAAUU [Mat - Same State 1 - Eli mod - D112]	–	–	25.2	64.9
CGAAAGGAGAGAGAGGAUAUCCAAAGGAAAACAUGAGGAUCACCCAUGUAGAAGGUAGGAGAUUGGGAGAAGGCUCAAGACAGAG [salish99-ss2-143(!!!!)]	–	–	21.3	36.1

Sequence	apparent KD of MS2 coat protein (MS2 coat protein [1]; input ligand: FMN 200 uM) [nM]	apparent KD of MS2 coat protein (MS2 coat protein [1]; input ligand: none) [nM]	apparent KD of MS2 coat protein (MS2 coat protein [2]) [nM]	apparent KD of MS2 coat protein (MS2 coat protein [3]) [nM]
AGGAGACAUGAGGAUCACCCAUGUGCACGUGGAGGAGGAUAUGCUAGUAGAAGAUAGAAUGCAGAAGGCCUAAGAA [JR_SameState1_Sub3]	–	–	42.8	35.3
AACAUACAUGAGGAUCACCCAUGUUUAUAAAAACAAGGAUAUAUAAGAACAAACAAACAAAUAGAAGGUGUAAAAA [Default title]	–	–	23.4	17.2
AAAUAACAUGAGGAUCACCCAUGUUGCAACGGUUGAGGAUAUGUGGGUGAAAAUAGCAUGGCAGAAGGCGAGUGUA [SameState1 Malc#27]	–	–	58.1	31.9
UAAUAAUAAACCAAGGAUAUGGAGUUUCCAACAUGAGGAUCACCCAUGUUUUGCUUGUAAUCGAUCCAGAAGGUGGAGCCAAAUA [JR_SS002_Sub1006]	–	–	35.6	68.4
ACGAGGAAGAGAGAGGAUAUCCAAAGGAAAACAUGAGGAUCACCCAUGUAAAAGGUAGGAAAUUGGGAGAAGGCUCAAGAGAGAG [salish99-ss2-069]	–	–	32.4	34.6
AAUACACAUGAGGAUCACCCAUGUAGAAAGAAGGCAGGAUAUCAGAUCCACAUGUGAUAAUGAGAAGGGCCAAUAU [SS 1 Tesla 10]	–	–	21.9	171
CGAAGACAUGAGGAUCACCCAUGUGGGAAUAUGGGAGGAUAUACAAAGACGAGAGUCAGAGUAGAAGGCCUAGGAA [salish99-ss1-104]	–	–	23.3	56.6
AGGAAACAUGAGGAUCACCCAUGUAAAAAAUAGGGAGGAUAUGGAAACACGAAAGUGAAACCAGAAGGCUCAAAAA [77%, Mat - Mod of Eli, 23]	–	–	13.8	18.2
CUAAUUGCAUAUUAGGAUAUACACUGGGUGACAUGAGGAUCACCCAUGUAAAAGCACACUCGGUAGUAGAAGGAGUGUGCAAGUC [Iserso]	–	–	36	19.1
AGAAAUAAAAGAGAGGAUAUCCAAAAGAAAACAUGAGGAUCACCCAUGUACACGAAAGUGAAAUGGGAGAAGGCUCAAAAUAAAG [80% More Helter Skelter 2 + Hairpin]	–	–	121	536
UAAAAACAUGAGGAUCACCCAUGUGAGAACAUGGGAGGAUAUACGAGGACGAAAGUCAAAGUAGAAGGCCUAAAAG [Garnet 84]	–	–	272	101
AAAAUACAUGAGGAUCACCCAUGUGAAAAUAUGGGAGGAUAUACCGAAAAAAAAAAAACGGUAGAAGGCCCUAAAA [SS! 1 MT 6]	–	–	17.9	41.6
AAUAAACAUGAGGAUCACCCAUGUAGAAACAUGGGAGGAUAUACAAAGACGAAAGUCAAAGUAGAAGGCCUAAUAA [Mat - Same State 1 - Mod - D167]	–	–	92.7	42.4
AUAAAACAUGAGGAUCACCCAUGUAGCUAAAGCACAGGAUAUAGGAGUCCGAGCAGACAUCUAGAAGGGUGGAAAA [Veeslelein]	–	–	57.5	88.6
GAAAAACAUGAGGAUCACCCAUGUAGAAAUAUGGGAGGAUAUACAAAGACGAAAGUCAAAGUAGAAGGCCUAAGAG [Garnet 22]	–	–	31.8	82.6
ACUACACAUGAGGAUCACCCAUGUCAGGCCGGACUAGGAUAUUAUAAACCAGAGUAAAAAUAAGAAGGAGUAGGAA [JR_SS001_Sub310]	–	–	39.2	61.3
AGGAAACAUGAGGAUCACCCAUGUAAAGAUGGGCGAGGAUAUCGAAAGAAAAGAAAGAAACGAGAAGGCGCAAAAG [Flamingo]	–	–	43.7	240
